{"source": "the nanobody polyreactivity screen of Harvey et al. (2022)"}
{"test": "yeast display, Sf9 membrane polyspecificity reagent, FACS + sequencing; frameworks hold sequencing errors", "outline": "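Nanobodies came from a synthetic yeast display library in Saccharomyces cerevisiae BJ5465, induced with galactose for 36–48 hours and stained for 1 hour at 4 °C with 10% biotinylated, detergent-solubilized Sf9 membrane reagent. Cells were enriched on streptavidin microbeads and then FACS-sorted, with low and high (top ~1%) gates set on anti-HA fluorescence for expression and streptavidin fluorescence for reagent binding. Each polyreactivity label reflects the gate a clone came from. Genes were amplified by colony PCR, sequenced by MiSeq 2 × 250 and filtered by CDR length.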"}
{"sequence": "QVQLVESGGGLVQAGGSLRLSCAASGRIFDRKAMGWYRQAPGKERELVAAISSRDGSTYYADSVKGRFTISRDNAKNTVYLQMNSLKPEDTGVYYCNRVSRGPVGGYYWGQGTQVTVSS", "polyreactivity (PSR sort gate)": "high polyreactivity"}
{"sequence": "QVQLVESGGGLVQAGGSLRLSCAASGRIFDRNAMGWYRQAPGKERELVAAIDDSGGDTSYADSVKGRFTISRDNAKNTVYLQMNSLKPEDTAVYYCNAGYADFVTYPRYYYWGQGTQVTVSS", "polyreactivity (PSR sort gate)": "low polyreactivity"}
{"sequence": "QVQLVESGGGLVQAGGSLRLSCAASGRIFDRYAIGWYRHAPGKERELVAAITSGGDTNYADSVKGRFTISRDNAKITVYLPKNSLKPEDTAVYYCNTRLVLGGGRRHDYWGQGTQVTVSS", "polyreactivity (PSR sort gate)": "low polyreactivity"}
{"sequence": "QVQLVESGGGLVQAGGSLRLSCAASGRIFDRYALGWYRQAPGTERELVAVISQSGGRTYYADSVKGRFTISRDNAKNTVYLEMNSLKPEDSAVYYCNKRYRNRYSYSEGDYWGQGTQVTVSS", "polyreactivity (PSR sort gate)": "high polyreactivity"}
{"sequence": "QVQLVESGGGLVQAGGSLRLSCAASGRIFDSYAMGWYRQAPGKERELVATISWDSASTYYADSVKGRFTISRDYAKNTVYLQMNSLKPEDTAVYYCAAGGSSSWAFNYWGQGTQVTVSS", "polyreactivity (PSR sort gate)": "low polyreactivity"}
{"sequence": "QVQLVESGGGLVQAGGSLRLSCAASGRIFDVNAMGWYRQAPGKERELVAAINKSGGTTYYADSVKGRFTISRDNAKNTVYLQMYSLKPEDTAVYYCAADSYSSRYDYWGQGTQVTVSS", "polyreactivity (PSR sort gate)": "high polyreactivity"}
{"sequence": "QVQLVESGGGLVQAGGSLRLSCAASGRIFDVNAMGWYRQAPGKERELVAAITDSDGSTYYADSVKGRFTISRDNAKNTVYLQMNSLKPEDTAVYYCAATQEPVTPQPYGYWGQATQVTVSS", "polyreactivity (PSR sort gate)": "low polyreactivity"}
{"sequence": "QVQLVESGGGLVQAGGSLRLSCAASGRIFDYNAMRRYRQAPGKERELVAAINSGGSTYADSVKGRFTISRDNAKNTVYLQMNSLKPEDTGVYDCAKSLGQTVWEYDSWGQGTQVTVSS", "polyreactivity (PSR sort gate)": "low polyreactivity"}
{"sequence": "QVQLVESGGGLVQAGGSLRLSCAASGRIFDYYAMGWYRQAPGKERELVARISSSGGSTYYADSVKGRFTISRDNAKNTVYLQKNSLKPEDTAVSYCDARSPRYWLRLREYWGQGTQVTVSS", "polyreactivity (PSR sort gate)": "high polyreactivity"}
{"sequence": "QVQLVESGGGLVQAGGSLRLSCAASGRIFDYYAMGWYRQEAGKERELVARITSGGTTNYADSVKGRFTISRDNAKNTVYLQMNSLKPEDTAVYYCNAQDYSDPLQMDYWGQCTQVTVSS", "polyreactivity (PSR sort gate)": "low polyreactivity"}
{"sequence": "QVQLVESGGGLVQAGGSLRLSCAASGRIFEDNGMGWYRQAPGKEREFVATISWDGDRTYYADSVKGRFTISRDNAKNTVYLQMNSLKPEDTAVYYCNADLPLWPVRGYEYWGQGTQVTVSS", "polyreactivity (PSR sort gate)": "low polyreactivity"}
{"sequence": "QVQLVESGGGLVQAGGSLRLSCAASGRIFEFYAMGWYRQAPGKERELVAAISFSGTSTYYADSVKGRFTISRDNAKNTVYLQMNSLKPEDTAVYYCAVRGVGADYDYWGQGTQVTVSS", "polyreactivity (PSR sort gate)": "low polyreactivity"}
{"sequence": "QVQLVESGGGLVQAGGSLRLSCAASGRIFERYAMGAYRQAPGKERELVAAISVSGSGTFYADSVKGLFTISRDNAKNTVYLQMNSLKTEDTAVYYCAADASLLGLFQGYDYWGQGTQVSVSS", "polyreactivity (PSR sort gate)": "low polyreactivity"}
{"sequence": "QVQLVESGGGLVQAGGSLRLSCAASGRIFETNAMGWYRQAPGKERELVAVITRGGSTYYADSVKGSFTISRDNAKNTVYLQMNSLKPEVTALYYCNVRRLYGYGYYYWGQGTQVTVSW", "polyreactivity (PSR sort gate)": "low polyreactivity"}
{"sequence": "QVQLVESGGGLVQAGGSLRLSCAASGRIFEVYDMGWYRQAPGKERELVAAISESDDNTYYADSVKGRFTISRDNAKNTVYLQMNSLKPEDTAVYYCNADVPGDTGWWGFDYWGQGTQVTVSS", "polyreactivity (PSR sort gate)": "low polyreactivity"}
{"sequence": "QVQLVESGGGLVQAGGSLRLSCAASGRIFEVYTMGWYRQAPGKERELVAAIDRSTGSTYYADSVKGRFTISRDNAKNTVYLQMNSLKPEDTAVYYCAARGTFLGTRPLGRFDYWGQGTQVTVSS", "polyreactivity (PSR sort gate)": "low polyreactivity"}
{"sequence": "QVQLVESGGGLVQAGGSLRLSCAASGRIFEYIAMGWYRQAPGKERELVAAITSDGSTNDADSVKGRFTISRDNAKNTVYLQMNSLNPEDTAVYYCNTRYSLYTKYAYYDEHDYWGQGTQVTVSS", "polyreactivity (PSR sort gate)": "low polyreactivity"}
{"sequence": "QVQLVESGGGLVQAGGSLRLSCAASGRIFEYYAMGWYRQAPGKERELVAAINTGGNTYYADSVKGRFTLSRDNAKNTVYLQMNSLKPEDTAVYYCATYPIWYCGYLSGTDYDYWGQGTQVTVSS", "polyreactivity (PSR sort gate)": "low polyreactivity"}
{"sequence": "QVQLVESGGGLVQAGGSLRLSCAASGRIFFANAMGWYRQAPGKERELVAAISYSGTSTYYADSVKGRFTISRDNAKNSVYLQMNSLKPEDTAVYYCNAGRYIKMGDWGQGTQVTVSS", "polyreactivity (PSR sort gate)": "high polyreactivity"}
{"sequence": "QVQLVESGGGLVQAGGSLRLSCAASGRIFFGYAMGWYRQAPGKERELVASISRGGSTNYADSVKGRFTISRDNAKNTVYLEMNSLKPEDTAVYYCAASRRRWSQQQGYGYYYWGQGTQVTVSS", "polyreactivity (PSR sort gate)": "high polyreactivity"}
{"sequence": "QVQLVESGGGLVQAGGSLRLSCAASGRIFFKNAMGWYRQAPGKERELVAAITWSGGRTYYADSVKGRFTISRDNAKNTVYLQMNSLKPEDTAVYYCNALAPSPYDWGQGTQVTVSS", "polyreactivity (PSR sort gate)": "high polyreactivity"}
{"sequence": "QVQLVESGGGLVQAGGSLRLSCAASGRIFFKNTMGWYRQAPGNESELVAAITSSGSSTYYADSVKARFTISRDNSKNNVYLQMNSLKPEDTAVYYCNALTWDHSRTGVDYWGQGTQVTVSS", "polyreactivity (PSR sort gate)": "low polyreactivity"}
{"sequence": "QVQLVESGGGLVQAGGSLRLSCAASGRIFFLNAMGWYRQAPGKERELVATISWTGGSTYYADSVKGRFTISRDNAKNTVDLQMTSLKPEDTAGYYCAKDGTNWGHAFDSWGQGTEVTVSS", "polyreactivity (PSR sort gate)": "low polyreactivity"}
{"sequence": "QVQLVESGGGLVQAGGSLRLSCAASGRIFFNYAMGWYRQAPGKERELVAAITRSGGRTYYADSVKGRFTISRDNAKNTVYLQMNSLKPEDTAVYYCAADSGSRGSVAHEYWGQGTQVTVSS", "polyreactivity (PSR sort gate)": "high polyreactivity"}
{"sequence": "QVQLVESGGGLVQAGGSLRLSCAASGRIFFRNAMGWYRQAPGKERELVAVINTGGSTNYADSVKGRFTISRDNAKNTVYLQMNSLKPEDTAVYYCAVDRASRRTYNQYGYWGQGTQVTVSS", "polyreactivity (PSR sort gate)": "high polyreactivity"}
{"sequence": "QVQLVESGGGLVQAGGSLRLSCAASGRIFFRNTMGWYRQAPGKERELVAAISGSGGSTYYADSVKGRFTISRDNAKNTVYLQMNSLKPEDTAVYYCAKRWLYPISYDYWGQGTQVTVSS", "polyreactivity (PSR sort gate)": "high polyreactivity"}
{"sequence": "QVQLVESGGGLVQAGGSLRLSCAASGRIFFRYVMGWYRPAPGKERELVATSTRSGGTTYYADSVKGRFTISRDNAKNTVYLQMNSLKPEDTAVYYCATDYTYHRVGPLYGFWGQGTQLTVSS", "polyreactivity (PSR sort gate)": "low polyreactivity"}
{"sequence": "QVQLVESGGGLVQAGGSLRLSCAASGRIFFWYVMGWYRQAPGKERELVAAISSGGRTYYADSVKGRFTISRDNAKNTVYLQMNSLKPEDTAVYYCNVEEYHVRADIGYSNYGYWGQGTQVTVSS", "polyreactivity (PSR sort gate)": "low polyreactivity"}
{"sequence": "QVQLVESGGGLVQAGGSLRLSCAASGRIFFYYAMGWYRQAPGKERELVATISYSGGCTYYADSVKGRFTISRDNAKNTVYLQMNSLKPEETAVYYCNARWGTPYYIQDFDYWGQGTQVTVSS", "polyreactivity (PSR sort gate)": "low polyreactivity"}
{"sequence": "QVQLVESGGGLVQAGGSLRLSCAASGRIFGAYAMGWYRQAPGKEREFVAAITWRGGSTYYADSVKGRFTISRDNAKNTVYLQMNSLKPEDTAVYYCAADQFTGSVWAYYYWGQGTQVTVSS", "polyreactivity (PSR sort gate)": "high polyreactivity"}
{"sequence": "QVQLVESGGGLVQAGGSLRLSCAASGRIFGAYAMGWYRQAPGKERELVAAITFRGGSTYYADSVKGRFTISRDNAKNTVYLQMNSLKPEDTAVYYCAADILDYLHIYDYWGQGTQVTVSS", "polyreactivity (PSR sort gate)": "low polyreactivity"}
{"sequence": "QVQLVESGGGLVQAGGSLRLSCAASGRIFGEYALGWYRQDPGKERELVARISRSGGSTYADSVKGRFTISRDNAKNTVYFQMNSLKPEVTAVYYCNADAYGTPEFTSYAVRYDYWGQGTQVTVSS", "polyreactivity (PSR sort gate)": "low polyreactivity"}
{"sequence": "QVQLVESGGGLVQAGGSLRLSCAASGRIFGFNAMGWYRQAPGKERELVAGITDSSGRTNYADSVKGRFTISRDNAKNTVYLEMNSLKPEDTAVLYCAKDGLVITAVGSDLWGHGTQVTVSS", "polyreactivity (PSR sort gate)": "low polyreactivity"}
{"sequence": "QVQLVESGGGLVQAGGSLRLSCAASGRIFGGNAMGWYRQAPAKERELVAAISKRGGSTYYADSVKGRFTISRDNAKNTVYLQMNSLKPEDTAVDYCAATAYADQGLDYGYWGQGTQVTVSS", "polyreactivity (PSR sort gate)": "high polyreactivity"}
{"sequence": "QVQLVESGGGLVQAGGSLRLSCAASGRIFGGNAMGWYRQAPGKERQLVAAISKRGGSTYYADSVKGRFTISRDNAKNTVYLQMNSLKPEDTAVYYCAATPYSDQGLDYGYWGQGTQVTVSS", "polyreactivity (PSR sort gate)": "high polyreactivity"}
{"sequence": "QVQLVESGGGLVQAGGSLRLSCAASGRIFGGNAMVWYRQAPGKERELVAAITTRGGSTYADSVKGRFTISRDNAKNTVYLQMNSLKPEDSAVYYCNKRYVIRRRGYDYWGQGTQVTVSS", "polyreactivity (PSR sort gate)": "low polyreactivity"}
{"sequence": "QVQLVESGGGLVQAGGSLRLSCAASGRIFGGYAMGWYRQAAGKERELVAAISRRGGSTYYADSVKGRFTISRDNAKNTVYLQMNSLKPEDTAVYYCNAVLSDQARLTRVDYDYWGQGTQVTVSS", "polyreactivity (PSR sort gate)": "high polyreactivity"}
{"sequence": "QVQLVESGGGLVQAGGSLRLSCAASGRIFGGYAMGWYRQAPGKERELVAAIRDSGRTYYADSVKGRFTISRDNEKNTVYLQMNRLKPEDTAVYYCAADAHSSYSPFRWYDYWGQGSQVTVSS", "polyreactivity (PSR sort gate)": "low polyreactivity"}
{"sequence": "QVQLVESGGGLVQAGGSLRLSCAASGRIFGGYAMGWYRQAPGKERELVAVISGRGGSTYYADSVKGRFTISRDNAMNTVYLQMNSLKPEDTAVYYCTVYRRIQRYGPQSYDYWGQGTQVTVSS", "polyreactivity (PSR sort gate)": "high polyreactivity"}
{"sequence": "QVQLVESGGGLVQAGGSLRLSCAASGRIFGGYTMGWYRQAPGKEREFVAAITSSGGSTYYADSVKGRLTISRDNAKNTVYLQMNSLKPEDTAVYYCAVADYYDDYDYWGQGTQVTVSS", "polyreactivity (PSR sort gate)": "low polyreactivity"}
{"sequence": "QVQLVESGGGLVQAGGSLRLSCAASGRIFGGYTMGWYRQAPGKERELVAAIRWSGGRTYYADSVKGRFTISRDNAKNTVYLQMNSLKPEDTAVYYCNRTPRYTIRYGYWGQGTQVTVSS", "polyreactivity (PSR sort gate)": "high polyreactivity"}
{"sequence": "QVQLVESGGGLVQAGGSLRLSCAASGRIFGGYTMGWYRQAPGKERELVAAITGSGGRTYYADSVKGRFTISRDKAKNTVYLQMNSLKPDETAVYYCNTVYRYRYYWGQGTQVTVSS", "polyreactivity (PSR sort gate)": "high polyreactivity"}
{"sequence": "QVQLVESGGGLVQAGGSLRLSCAASGRIFGHYAMGWYRPAPGKERELVAAISTGGSTYYADSVKGRFTISRDNAKNTVYFQMNSLKPEDTAVYFCNKRPVRRKYDYWGQGTHVTVSS", "polyreactivity (PSR sort gate)": "low polyreactivity"}
